Data as given in patent US9833497B2, “Human originated EGF domain proteins and use of the same” (CHENGDU SOURCEBIO LIMITED-LIABILITY COMPANY, priority 2013, dated 2017).

B1: PRT499 (protein, listed as Homo sapiens)
chain: CNCHNKAKDCYYDESVAKQKKSLNTAGQFRGGGVCINCLQNTMGINCETCIDGYYRPHKVSPYEDEPCRP
B2: PRT588 (protein, listed as Homo sapiens)
chain: CDCNGHSETCHFDPAVFAASQGAYGGVCDNCRDHTEGKNCERCQLHYFRNRRPGASIQETCIS
B3: PRT587 (protein, listed as Homo sapiens)
chain: CFCHGHADRCAPKPGASAGPSTAVQVHDVCVCQHNTAGPNCERCAPFYNNRPWRPAEGQDAHECQR
B4: PRT477 (protein, listed as Homo sapiens)
chain: LCSQALCSGHGRCVRRTSHPKALLLLNPASFSIQLTPGGGPLSLRGALSLGDQAQMAVEFKCRCYPGWQAPWCE
B5: PRT593 (protein, listed as Homo sapiens)
chain: CFCNGHASECRPMQKMRGDVFSPPGMVHGQCVCQHNTDGPNCERCKDFFQDAPWRPAADLQDNACRS
B6: PRT529 (protein, listed as Homo sapiens)
chain: CNCHGHASNCYYDPDVERQQASLNTQGIYAGGGVCINCQHNTAGVNCEQCAKGYYRPYGVPVDAPDGCIP
B7: PRT551 (protein, listed as Homo sapiens)
chain: CNCYGHATDCYYDPEVDRRRASQSLDGTYQGGGVCIDCQHHTTGVNCERCLPGFYRSPNHPLDSPHVCRR
B8: PRT480 (protein, listed as Homo sapiens)
chain: VCSLHLCRNNGRCIRKMWNAPSYLHLNPASYHIEASEDGEFTVKGKASDTDLAVMADTFSCHCYQGYEGADCR
B9: PRT1459 (protein, listed as Homo sapiens)
chain: CQCNSHSKSCHYNISVDPFPFEHFRGGGGVCDDCEHNTTGRNCELCKDYFFRQVGADPSAIDVCKP
B10: PRT1182 (protein, listed as Homo sapiens)
chain: PREPCPGGACRVIDGCGSDAGPGMPGTAASGVCGPHGRCVSQPGGNFSCICDSGFTGTYCH
B11: PRT514 (protein, listed as Homo sapiens)
chain: CNCHGKAEECYYDENVARRNLSLNIRGKYIGGGVCINCTQNTAGINCETCTDGFFRPKGVSPNYPRPCQP

Experiments:
Type in all cases: cell-based
Citrobacter diversus = experiment: MIC against Gram-negative bacteria: Citrobacter diversus; settings: 5×10^5 CFU/mL
Experimental: (§1) 1. Gram-negative bacteria, such as E. coli BL21, Pseudomonas aeruginosa, Klebsiella pneumonia, Enterobacter cloacae, Aeromonas hydrophila, Citrobacter diversus, Moraxella catarrhalis, Proteus mirabilis, Proteus vulgaris, Serratia marcescens, etc were streaked on solid LB medium and cultured respectively. Then, typical clones were picked, inoculated into common liquid LB medium respectively, and cultured at 37° C. with shaking at 185 rpm until the McFarland specific turbidity was 0.5. The bacterial culture of each of Gram-negative bacteria was centrifuged at 4000×g for 3 min, the supernatant was discarded, and the thalli were resuspended with fresh LB medium.
(§2) 2. The above-mentioned bacterial suspensions were diluted and inoculated into 96-well plates with the final concentration of the bacterial suspension being 5×10^5 CFU/mL per well.
(§3) 3. Each of the purified human-originated EGF domain proteins (PRT1 to PRT1498 in Table 1) was added to each of the above wells and subjected to two-fold serial dilution in concentration. Three parallel wells were set up for each concentration in the gradient.
(§4) 4. The above-mentioned 96-well plates were placed and cultured at 37° C. in shaking incubator shaking at 175 rpm. […] The minimal inhibitory concentration MIC is defined as the lowest concentration of the recombinant protein at which there is no growth of the bacteria.

Pseudomonas aeruginosa = experiment: MIC against Gram-negative bacteria: Pseudomonas aeruginosa; settings: 5×10^5 CFU/mL
Experimental: as §1, §2, §3, §4

Klebsiella pneumonia = experiment: MIC against Gram-negative bacteria: Klebsiella pneumonia; settings: 5×10^5 CFU/mL
Experimental: as §1, §2, §3, §4

Proteus mirabilis = experiment: MIC against Gram-negative bacteria: Proteus mirabilis; settings: 5×10^5 CFU/mL
Experimental: as §1, §2, §3, §4

Serratia marcescens = experiment: MIC against Gram-negative bacteria: Serratia marcescens; settings: 5×10^5 CFU/mL
Experimental: as §1, §2, §3, §4

Enterobacter cloacae = experiment: MIC against Gram-negative bacteria: Enterobacter cloacae; settings: 5×10^5 CFU/mL
Experimental: as §1, §2, §3, §4

Proteus vulgaris = experiment: MIC against Gram-negative bacteria: Proteus vulgaris; settings: 5×10^5 CFU/mL
Experimental: as §1, §2, §3, §4

E. coli BL21 = experiment: MIC against Gram-negative bacteria: E. coli BL21; settings: 5×10^5 CFU/mL
Experimental: as §1, §2, §3, §4

Aeromonas hydrophila = experiment: MIC against Gram-negative bacteria: Aeromonas hydrophila; settings: 5×10^5 CFU/mL
Experimental: as §1, §2, §3, §4

Moraxella catarrhalis = experiment: MIC against Gram-negative bacteria: Moraxella catarrhalis; settings: 5×10^5 CFU/mL
Experimental: as §1, §2, §3, §4

E. coli DH5α = experiment: Antibacterial activity: MIC and growth curve against E. coli DH5α in 96-well plate; settings: minimal inhibitory concentration against E. coli DH5α; 96-well plate, 5×10^5 CFU/mL, 37° C., judged after 8 h
Experimental: 1. E. coli DH5α was exemplified. E. coli DH5α was streaked and cultured on LB solid medium. Then, a typical clone was picked and inoculated into common LB liquid medium, cultured at 37° C. with shaking at 185 rpm until the logarithmic growth phase was reached (OD600 of about 0.5). The bacterial culture was centrifuged at 4000×g for 3 min, the supernatant was discarded, and the thalli were resuspended with fresh LB medium.
2. The above-mentioned bacterial suspension was diluted and inoculated into a 96-well plate with the total volume of 100 μL per well and a bacterial count of 5×10^5 CFU/mL.
3. The recombinant protein hF VII-EGF1 was added to the above-mentioned wells with the final protein concentration in the well of the highest protein concentration being 50 μg/mL. Basing on this final concentration, a two-fold serial dilution was performed till a protein concentration gradient consisting of 50, 25, and 12.5 μg/mL was set up. Three parallel wells were set up for each concentration in the gradient.
as §4, with “plate was” for “plates were”, “rpm. Samples were taken every 30 min, the absorbance values were determined at 600 nm wavelength under a ultra violet spectrophotometer, and an inhibition curve was plotted.” for “rpm.”
According to the experimental procedures in Example 14, the minimal inhibitory concentrations (MIC, μg/mL) of the other human-originated EGF domain proteins (PRT2 to PRT1498 in Table 1) for E. coli DH5α were determined.

[1] = 10 h cultivation at 37° C., two-fold serial dilution

| Molecule | MIC against C. diversus (Citrobacter diversus; 96-well plate, 37° C., 10 h) [µg/mL] | MIC against P. aeruginosa (Pseudomonas aeruginosa; 96-well plate, 37° C., 10 h) [µg/mL] | MIC against K. pneumonia (Klebsiella pneumonia; 96-well plate, 37° C., 10 h) [µg/mL] | MIC against P. mirabilis (Proteus mirabilis; 96-well plate, 37° C., 10 h) [µg/mL] | MIC against S. marcescens (Serratia marcescens; 96-well plate, 37° C., 10 h) [µg/mL] | MIC against E. cloacae (Enterobacter cloacae; 96-well plate, 37° C., 10 h) [µg/mL] | MIC against P. vulgaris (Proteus vulgaris; 96-well plate, 37° C., 10 h) [µg/mL] | MIC against E. coli BL21 (E. coli BL21; 96-well plate, 37° C., 10 h) [µg/mL] | MIC against A. hydrophila (Aeromonas hydrophila; 96-well plate, 37° C., 10 h) [µg/mL] | MIC against M. catarrhalis (Moraxella catarrhalis; 96-well plate, 37° C., 10 h) [µg/mL] | MIC (E. coli DH5α) [µg/mL] | also measured |
| --- | --- | --- | --- | --- | --- | --- | --- | --- | --- | --- | --- | --- |
| B1 | 12.5 | 100 | 25 | 50 | 12.5 | 12.5 | 25 | 25 | 25 | 25 | 12.5 | – |
| B2 | 12.5 | 50 | 25 | 12.5 | 12.5 | 12.5 | 25 | 25 | 25 | 25 | 12.5 | – |
| B3 | 25 | 25 | 12.5 | 25 | 25 | 25 | 50 | 50 | 50 | 12.5 | 25 | – |
| B4 | 25 | 12.5 | 50 | 25 | 25 | 25 | 12.5 | 50 | 12.5 | 50 | 12.5 | – |
| B5 | 25 | 25 | 12.5 | 25 | 25 | 25 | 50 | 50 | 50 | 12.5 | 25 | – |
| B6 | 25 | 25 | 50 | 25 | 25 | 25 | 12.5 | 12.5 | 12.5 | 50 | 25 | – |
| B7 | 50 | 50 | 25 | 12.5 | 50 | 12.5 | 25 | 25 | 25 | 25 | 12.5 | – |
| B8 | 50 | 50 | 25 | 12.5 | 50 | 12.5 | 25 | 25 | 25 | 25 | 12.5 | – |
| B9 | – | – | – | – | – | – | – | – | – | – | 12.5 | MIC against C. diversus (Citrobacter diversus; Citrobacter diversus, 10 h cultivation at 37° C.): 50 µg/mL; MIC against P. aeruginosa (Pseudomonas aeruginosa; Pseudomonas aeruginosa, 10 h cultivation at 37° C.): 25 µg/mL; MIC against K. pneumonia (Klebsiella pneumonia; Klebsiella pneumonia, 10 h cultivation at 37° C.): 25 µg/mL; MIC against P. mirabilis (Proteus mirabilis; Proteus mirabilis, 10 h cultivation at 37° C.): 25 µg/mL; MIC against S. marcescens (Serratia marcescens; Serratia marcescens, 10 h cultivation at 37° C.): 25 µg/mL; MIC against E. cloacae (Enterobacter cloacae; Enterobacter cloacae, 10 h cultivation at 37° C.): 12.5 µg/mL; MIC against P. vulgaris (Proteus vulgaris; Proteus vulgaris, 10 h cultivation at 37° C.): 50 µg/mL; MIC against E. coli BL21 (E. coli BL21; E. coli BL21, 10 h cultivation at 37° C.): 50 µg/mL; MIC against A. hydrophila (Aeromonas hydrophila; Aeromonas hydrophila, 10 h cultivation at 37° C.): 25 µg/mL; MIC against M. catarrhalis (Moraxella catarrhalis; Moraxella catarrhalis, 10 h cultivation at 37° C.): 12.5 µg/mL |
| B10 | – | – | – | – | – | – | – | – | – | – | 12.5 | MIC C. diversus (Citrobacter diversus; [1]): 50 µg/mL; MIC P. aeruginosa (Pseudomonas aeruginosa; [1]): 50 µg/mL; MIC K. pneumonia (Klebsiella pneumonia; [1]): 25 µg/mL; MIC P. mirabilis (Proteus mirabilis; [1]): 50 µg/mL; MIC S. marcescens (Serratia marcescens; [1]): 25 µg/mL; MIC E. cloacae (Enterobacter cloacae; [1]): 25 µg/mL; MIC P. vulgaris (Proteus vulgaris; [1]): 12.5 µg/mL; MIC E. coli BL21 (E. coli BL21; [1]): 25 µg/mL; MIC A. hydrophila (Aeromonas hydrophila; [1]): 12.5 µg/mL; MIC M. catarrhalis (Moraxella catarrhalis; [1]): 12.5 µg/mL |
| B11 | 12.5 | 50 | 25 | 12.5 | 12.5 | 12.5 | 25 | 12.5 | 25 | 25 | 50 | – |
